Test results from article PMC10204903 (Cell, 2022).

B1: mAb 5.24.1C11 (antibody, V domains shown)
VH: QVQLVQSGAEVKKPGASVKVSCRTSGYTFSSYNIHWVRQAPGQGLEWMGVINPYGRSTTLYARRFRDRVTMTRDTSTSTVYMELSSLRSEDTAVYFCGRLYSGAPYGLDVWGQGSTVTVSS
VL: DIVMTQSPLSLPVTPGEPASISCRSSQSLLHSNGYNYVDWYLQKPGQSPQLLIYLGSSRASGVPDRFSGSGSGTDFTLKISRVETEDVGIYYCMQGLQTPLTFGGGTKVEIK
B2: mAb 9.20.1C3 (antibody, V domains shown)
VH: QVQLVQSGAEVKKPGSSVKVACKVSGGTFSSYTISWVRQAPGQGLEWMGGIIPSFGVGHYSQKFRDRVTLTADKSTTTAFLELSSVRSEDTALYYCAILGTFNWKSGGNYFGPWGQGTLVTVSS
VL: DIVLTQSPDSLAASLGERATISCKSSHSVLYSSNNKDFFAWYQQKPGQPPKLLISWASTRESGVPVRFNGGGSGTHFTLTISSLQAEDVAVYYCQQYFSSPITFGQGTRLEIK

Experiments:
Experiment in all cases: ELISA
SUDV GP ectodomain = SUDV GP ectodomain (Sudan virus (SUDV), UniProt Q7T9D9)
[1] = molecular target: EBOV soluble glycoprotein (sGP) (Ebola virus (EBOV), UniProt P60170)
BDBV GP ectodomain = BDBV GP ectodomain (Bundibugyo virus; strain of the bought …, UniProt B8XCN0)

Binder	binding result (SUDV GP ectodomain)	binding result [1]	binding result (BDBV GP ectodomain)
B1	binds	no binding	binds
B2	binds	no binding	binds
